This is an account of results in patent US20130243795A1 (Janssen / Centocor, published 2013).

Residue numbers refer to the chain shown, from its start. Some results are limits rather than exact numbers.

Experiment [1] deals with T1, Human CD27 ECD (ECD 1-173, His6) (human, UniProt P26842 21-193, biotinylated on amine residues (NHS-ester) where used biotinylated).
T1 construct: also called biotinylated human CD27 ECD
Nature of the experiment: single point Fab ELISA. For orientation: ELISA stands for enzyme-linked immunosorbent assay.

Experiment [2] concerns the target T1, Human CD27 ECD (ECD 1-173, His6). Put plainly: Fab ELISA; Fab captured by anti-Fd, biotinylated CD27 ECD at 0.2 nM.
Experiment [3] has as its target T2, Human CD27 ECD truncated (ECD 1-121, cleavage site, His6) (human).
T2 construct: also called human CD27 ECD with His Tag; CD27-His
T2 chain: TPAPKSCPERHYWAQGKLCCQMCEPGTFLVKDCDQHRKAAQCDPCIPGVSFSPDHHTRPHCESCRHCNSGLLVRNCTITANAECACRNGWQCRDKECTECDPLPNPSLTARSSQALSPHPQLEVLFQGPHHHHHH
Put plainly: ProteOn SPR, culture supernatants.

Experiment [4] deals with T2, Human CD27 ECD truncated (ECD 1-121, …). Nature of the experiment: ProteOn SPR, purified mAb, CD27-His.

B1: F18 (Fab, V domains shown)
VH: EVQLLESGGGLVQPGGSLRLSCAASGFTFSSYTMSWVRQAPGKGLEWVSAIDHGGGRTYYPDSVKGRFTISRDNSKNTLYLQMNSLRAEDTAVYYCARHRGNPFDYWGQGTLVTVSS
VL: DIQMTQSPSSLSASVGDRVTITCRASKSVSTSGYSFMHWYQQKPGKAPKLLIYLASNLESGVPSRFSGSGSGTDFTLTISSLQPEDFATYYCQHSRELPWTFGQGTKVEIK
notes: also called H40/L40
Consider B1, for which, in experiment [1], the binding result is given as “binds”.

B2: F19 (Fab, V domains shown)
VH: B1 VH with Y59W
VL: B1 VL
notes: also called H41/L40
Consider B2, for which the binding result in experiment [1] is listed as “binds”.

B3: F256 (Fab, V domains shown)
VH: B1 VH with A50Y, D52S, H53S, R57N
VL: B1 VL with L54V, A55G, N57R, E59D, S60Y
notes: also called H39/L137
Consider B3, for which the binding result in experiment [1] is on record as “binds”.

B4: F279 (Fab, V domains shown)
VH: B1 VH with A50Y, D52S, H53S, R57N
VL: B1 VL with T31Y, S32V, G33R, Y34W
notes: also called H39/L160
Take B4: in experiment [1], the binding result is “binds”.

B5: F57 (Fab, V domains shown)
VH: B1 VH with R57Q, Y59L
VL: B1 VL
notes: also called H79/L40
B5: in experiment [1], the binding result is given as “binds”.

B6: F243 (Fab, V domains shown)
VH: B1 VH with A50Y, D52S, H53S, R57N
VL: B1 VL with L54V, A55G, N57R, L58M, E59A, S60F
notes: also called H39/L124
In the case of B6, the binding result in experiment [1] is given as “binds”.

B7: M69-derived Fab with VH H239 (Fab, V domains shown)
VH: EVQLVQSGAEVKKPGESLKISCKGSGYAFSSSWMNWVRQMPGKGLEWMGRIYAGDGDTNYSPSFQGQVTISADKSISTAYLQWSSLKASDTAMYYCARSDYYGDYGFAYWGQGTLVTVSS
VL: DIVMTQSPDSLAVSLGERATINCKASQSVDYAGDSYMNWYQQKPGQPPKLLIYAASNLESGVPDRFSGSGSGTDFTLTISSLQAEDVAVYYCQQSNEDPYTFGQGTKLEIK
notes: clone of library C27H28L2; pairing with parent L35 inferred
For the molecule B7, the “percent binding of the parent” value in experiment [2] was at least 100%.

B8: M69-derived Fab with VH H238 (Fab, V domains shown)
VH: B7 VH with A53V
VL: B7 VL
notes: as for B7
Turning to B8, the “percent binding of the parent” value in experiment [2] was at least 100%.

B9: M69-derived Fab with VL L261 (Fab, V domains shown)
VH: B7 VH with A53P
VL: B7 VL with D34S, Y36F, A54E
notes: clone of library C27L35L2; pairing with parent H28 inferred
As for B9, in experiment [2], the “percent binding of the parent” value was at least 100%.

B10: M69-derived Fab with VH H241 (Fab, V domains shown)
VH: B7 VH with A53G, G54R
VL: B7 VL
notes: as for B7
For the molecule B10, the “percent binding of the parent” value in experiment [2] is at least 100%.

B11: M69-derived Fab with VH H242 (Fab, V domains shown)
VH: B7 VH with G54N
VL: B7 VL
notes: as for B7
For B11, the “percent binding of the parent” value in experiment [2] is at least 100%.

B12: M69-derived Fab with VH H244 (Fab, V domains shown)
VH: B7 VH with A53S
VL: B7 VL
notes: as for B7
For B12, the “percent binding of the parent” value in experiment [2] is at least 100%.

B13: M69-derived Fab with VL L260 (Fab, V domains shown)
VH: B7 VH with A53P
VL: B7 VL with Y31W, D34H, Y36W, A54T
notes: as for B9
Consider B13, for which, in experiment [2], the “percent binding of the parent” value is at least 100%.

B14: M69-derived Fab with VH H237 (Fab, V domains shown)
VH: B7 VH with Y52F, A53V, G54R
VL: B7 VL
notes: as for B7
On to B14, for which the “percent binding of the parent” value in experiment [2] is at least 100%.

B15: M69-derived Fab with VH H243 (Fab, V domains shown)
VH: B7 VH with A53G
VL: B7 VL
notes: as for B7
For the molecule B15, the “percent binding of the parent” value in experiment [2] is at least 100%.

B16: M69-derived Fab with VL L256 (Fab, V domains shown)
VH: B7 VH with A53P
VL: B7 VL with Y36W, A54V
notes: as for B9
With B16, the “percent binding of the parent” value in experiment [2] is at least 100%.

B17: M69-derived Fab with VH H245 (Fab, V domains shown)
VH: B7 VH with G8V, A53S, G54R
VL: B7 VL
notes: as for B7
B17: the “percent binding of the parent” value in experiment [2] was at least 100%.

B18: M69-derived Fab with VH H236 (Fab, V domains shown)
VH: B7 VH with A53P, S99A, A108G
VL: B7 VL
notes: clone of library C27H28L3; pairing with the parent L35 light chain is inferred from the library design
Take B18: the “percent binding of the parent” value in experiment [2] was at least 100%.

B19: M69-derived Fab with VH H240 (Fab, V domains shown)
VH: B7 VH with G54R
VL: B7 VL
notes: as for B7
In the case of B19, the “percent binding of the parent” value in experiment [2] was at least 100%.

B20: M69-derived Fab with VL L255 (Fab, V domains shown)
VH: B7 VH with A53P
VL: B7 VL with Y36F
notes: clone recovered from the CDR-L1 libraries of L35; pairing with the parent H28 heavy chain inferred
For B20, in experiment [2], the “percent binding of the parent” value was at least 100%.

B21: M69-derived Fab with VL L257 (Fab, V domains shown)
VH: B7 VH with A53P
VL: B7 VL with Y36W, A54T, Q83L
notes: as for B9
Regarding B21, the “percent binding of the parent” value in experiment [2] was at least 100%.

B22: M159 (antibody, human IgG4, V domains shown)
VH: QVQLVQSGAEVKKPGASVKVSCKASGYAFSSSWMNWVRQAPGQGLEWMGRIYPGDGDTNYNGKFKGRVTMTRDTSTSTVYMELSSLRSEDTAVYYCARSDYYGDYGFAYWGQGTLVTVSS
VL: DIQMTQSPSSLSASVGDRVTITCKASQSVDYAGDSYMNWYQQKPGKAPKLLIYAASNLESGVPSRFSGSGSGTDFTLTISSLQPEDFATYYCQQSNEDPYTFGQGTKVEIK
notes: also called H25,L220; parental mAb
A word on the Kd: it is a measure of binding affinity in units of concentration. In turn, B22 yielded a dissociation constant Kd in experiment [3] of 2.23 nM.

B23: M161 (antibody, human IgG4, V domains shown)
VH: B22 VH with P53S
VL: B22 VL with A32F, Y36L
notes: also called H196,L218
Turning to B23, in experiment [3], the equilibrium dissociation constant (Kd) came out at 1.34 nM.

B24: M165 (antibody, human IgG4, V domains shown)
VH: B22 VH with P53S
VL: B22 VL with A32F, G33R, D34T, Y36F
notes: also called H196,L221
As to B24, the Kd in experiment [3] was found to be 0.18 nM.

B25: M672 (antibody, V domains shown)
VH: B22 VH with P53S, G56A, N61A, G62Q
VL: B22 VL with G33H, D34E, Y36F
notes: isotype not restated (path 2); also called H255,L217
What is called koff is the rate constant with which the complex falls apart. Low readings indicate a long-lived complex, high ones a short-lived complex. One may read the kon as the second-order rate constant of association. High values mean faster complex formation, low ones slower complex formation. With B25, in experiment [4], the Kd stood at 0.144 nM, the off-rate constant (koff) came to 0.000264 s⁻¹ and the kon came out at 1.83e+06 M⁻¹ s⁻¹.

B26: M153 (antibody, human IgG4, V domains shown)
VH: B22 VH
VL: B22 VL with A32V, D34T, Y36F
notes: also called H25,L222
In turn, B26 yielded an equilibrium dissociation constant (Kd) in experiment [3] of 1.41 nM.

B27: M673 (antibody, V domains shown)
VH: B22 VH with P53S, G56A, G62Q
VL: B22 VL with G33H, D34E, Y36F
notes: isotype not restated (path 2); also called H256,L217
Take B27: in experiment [4], the dissociation constant Kd was 0.1 nM, the off-rate constant (koff) was 0.000189 s⁻¹ and the on-rate (kon) is 1.89e+06 M⁻¹ s⁻¹.

B28: M154 (antibody, human IgG4, V domains shown)
VH: B22 VH
VL: B22 VL with A32F, G33R, D34T, Y36F
notes: also called H25,L221
On to B28, for which the Kd in experiment [3] worked out at 1.56 nM.

B29: M163 (antibody, human IgG4, V domains shown)
VH: B22 VH with P53S
VL: B22 VL with A32W, G33S, Y36F
notes: also called H196,L223
For B29, in experiment [3], the Kd was determined as 0.3 nM.

B30: M162 (antibody, human IgG4, V domains shown)
VH: B22 VH with P53S
VL: B22 VL with T20A, A32Y, G33N, D34S, Y36F
notes: also called H196,L224
In experiment [3], B30 returned a dissociation constant (Kd) of 0.43 nM.

B31: M670 (antibody, V domains shown)
VH: B7 VH with A53S, G56A, S61A, P62Q, S63K, Q65K
VL: B22 VL with D34E, Y36F
notes: isotype not restated (path 2); also called H257,L266
In experiment [4], B31 returned a Kd of 0.065 nM, a koff of 0.000113 s⁻¹ and a kon of 1.73e+06 M⁻¹ s⁻¹.

B32: M150 (antibody, human IgG4, V domains shown)
VH: B22 VH
VL: B22 VL with A32F, Y36L
notes: also called H25,L218
B32 showed a Kd in experiment [3] of 4.04 nM.

B33: M164 (antibody, human IgG4, V domains shown)
VH: B22 VH with P53S
VL: B22 VL with A32V, D34T, Y36F
notes: also called H196,L222
With B33, in experiment [3], the Kd stood at 0.27 nM.

B34: M151 (antibody, human IgG4, V domains shown)
VH: B22 VH
VL: B22 VL with T20A, A32Y, G33N, D34S, Y36F
notes: also called H25,L224
Take B34: the Kd in experiment [3] was 1.07 nM.

B35: M669 (antibody, V domains shown)
VH: B22 VH with P53S, G56A, G62Q
VL: B22 VL with D34E, Y36F
notes: isotype not restated (path 2); also called H256,L266
Regarding B35, in experiment [4], binding was characterised by a dissociation constant (Kd) of 0.058 nM, the off-rate (koff) was found to be 0.000145 s⁻¹ and the kon was 2.49e+06 M⁻¹ s⁻¹.

B36: M152 (antibody, human IgG4, V domains shown)
VH: B22 VH
VL: B22 VL with A32W, G33S, Y36F
notes: also called H25,L223
Regarding B36, the dissociation constant Kd in experiment [3] turned out to be 1.54 nM.
